Columns and labels:
[1] = molecular target: T1, NELF-E (Drosophila, UniProt P92204 P92204:1-280); test: pulldown; serial microcolumns, qPCR; enrichment falls above 0.6 ug/uL NELF-E, de-enriched at 10 ug/uL; conditions: tags: N-terminal hexahistidine; immobilised on Ni-NTA Superflow resin
T1 sequence: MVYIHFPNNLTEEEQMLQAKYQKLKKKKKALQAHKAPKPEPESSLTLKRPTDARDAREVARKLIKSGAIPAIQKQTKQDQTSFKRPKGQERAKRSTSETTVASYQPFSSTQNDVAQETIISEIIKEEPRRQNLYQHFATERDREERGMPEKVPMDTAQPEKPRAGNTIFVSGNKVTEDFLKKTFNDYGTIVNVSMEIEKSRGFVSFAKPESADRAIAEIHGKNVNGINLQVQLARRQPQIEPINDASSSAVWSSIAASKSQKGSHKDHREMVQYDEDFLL

[2] = molecular target: hHSF1 (heat shock factor 1) (UniProt Q00613 Q00613:1-529); test: pulldown; serial microcolumns, qPCR; same buffer, 5 mM MgCl2; conditions: tags: N-terminal GST; immobilised on glutathione-agarose
Chain of hHSF1 (heat shock factor 1) (Q00613 whole entry, one chain of several): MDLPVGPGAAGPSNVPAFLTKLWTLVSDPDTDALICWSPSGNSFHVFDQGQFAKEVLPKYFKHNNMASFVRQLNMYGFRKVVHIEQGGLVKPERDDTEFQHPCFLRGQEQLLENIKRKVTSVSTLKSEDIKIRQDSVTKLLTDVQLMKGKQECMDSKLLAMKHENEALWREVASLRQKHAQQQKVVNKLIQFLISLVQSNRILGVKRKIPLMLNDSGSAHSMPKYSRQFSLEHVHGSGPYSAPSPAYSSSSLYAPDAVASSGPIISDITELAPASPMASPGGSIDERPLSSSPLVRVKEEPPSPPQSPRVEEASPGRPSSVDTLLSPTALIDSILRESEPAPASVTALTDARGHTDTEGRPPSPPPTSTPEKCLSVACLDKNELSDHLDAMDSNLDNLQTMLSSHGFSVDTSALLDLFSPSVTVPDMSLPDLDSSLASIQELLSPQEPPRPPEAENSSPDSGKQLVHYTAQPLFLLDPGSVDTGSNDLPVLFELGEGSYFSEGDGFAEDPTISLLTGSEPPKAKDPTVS
Experimental: (§1) The order of targets was as follows: Empty, GSH, Ni-NTA, Amylose, His-GFP, GST-hHSF1, His-NELF-E, His-UBLCP1, and is illustrated in FIG. 41 in section I.
(§2) The RNA pools were injected at a rate of 33 μL/min for 30 min with a 10 μL aliquot of each pool set aside and used as a standard for quantitative polymerase chain reaction (qPCR) analysis. All buffers and solutions were degassed prior to use and introduced into the microcolumns via programmable multichannel syringe pumps (Harvard Apparatus) with MEDUSA placed onto a 96-well format liquid waste reservoir. The microcolumns were reconfigured to run in parallel by removing the caps and silicone layers permitting the connectivity of microcolumns, and reassembling the device with the appropriate caps for a parallel configuration, and washed with 3 mL of binding buffer at a rate of 300 μL/min. The RNA/RNA-protein complexes were eluted directly into a 96-well microplate from the individual microcolumns by flowing elution buffer [binding buffer+50 mM ethylenediaminetetraacetic acid (EDTA pH 8.0) for selections with Ni-NTA resin; binding buffer+10 mM glutathione for selections with GSH resin; binding buffer+10 mM maltose for selections with amylose-resin] at a rate of 50 μL/min for 12 min. […]

[3] = molecular target: GFP (UniProt P42212 P42212:1-238); test: pulldown; serial microcolumns, qPCR; 10 mM HEPES-KOH pH 7.6, 125 mM NaCl, 25 mM KCl, 5 mM MgCl2, 0.02% Tween-20; GFP 0.6 ug/uL resin; conditions: tags: N-terminal hexahistidine; immobilised on Ni-NTA Superflow resin
Experimental: as §1, §2

B1: NELFapt (Napt1) (ssRNA)
RNA: GGGAAUGGAUCCACAUCUACGAAUUCCCAACGACUGCCGAGCGAGAUUACGCUUGAGCGCCCCACUGAGGAUGCCCACGGGCGAUUGGGGCACGGCUUCACUGCAGACUUGACGAAGCUU
In the case of B1, the binding signal [1] is reported as 262 fold enrichment over N70 library.

B2: HSFapt (hHSF2-R5-2) (ssRNA)
RNA: GGGAAUGGAUCCACAUCUACGAAUUCAAUCAAGUCCCCAGACUCAGCAACACUGGACAGCGAUAUGCAGAUAACCAAGACCAAUUCACUCCAGUUCACUGCAGACUUGACGAAGCUU
For B2, the binding signal [2] was 232 fold enrichment over N70 library.

B3: GFPapt (AP3-1) (ssRNA)
RNA: AGCUUCUGGACUGCGAUGGGAGCACGAAACGUCGUGGCGCAAUUGGGUGGGGAAAGUCCUUAAAAGAGGGCCACCACAGAAGCU
With B3 the binding signal [3] was 750 fold enrichment over N70 library.
